The values that follow come from patent US20200140526A1 (UNIVERSITY OF ROCHESTER, published 2020).

Where only a bound is given, the exact number is not on record here.

Test [1] has as its target T1, B/Brisbane/60/2008 (IBV) HA (influenza B virus B/Brisbane/60/2008 …, UniProt P22092 16-559). Nature of the test: cell-based or functional assay.
Test [2] deals with A/Puerto Rico/08/1934 H1N1 (PR8 H1N1) HA (influenza A virus A/Puerto Rico/08/1934 …, UniProt P03452 18-528). Nature of the test: cell-based or functional assay.
In test [3] the target is A/Wyoming/3/2003 H3N2 HA (influenza A virus A/Wyoming/3/2003 H3N2). Nature of the test: cell-based or functional assay.
For test [4], the target named is T1, B/Brisbane/60/2008 (IBV) HA. Nature of the test: mPLEX-Flu multiplex bead assay, PE anti-human IgG, MFI heat map.
The target of test [5] is T2, B/Massachusetts/2/2012.
T2 construct: column under B
The test is described as above.

For test [6], the target named is A/Texas/50/2012. The description is as above.
The target in test [7] is A/South Carolina/01/1918 H1N1 HA (influenza A virus A/South …, UniProt Q9WFX3 18-529). The test is described as above.

B1: KPF1 human monoclonal antibody (hmAb) (antibody, V domains shown)
VH: EVQLLESGGGLVQPGGSLRISCAASGSTFGDFAMSWVRQSPGRGLEWVSVTSAGGDRTYYADSVKGRFTISRDNSKNTLYLQMNSLRGEDTAMYYCARLDSSGFHYGRPGRNWGQGTLVTVSS
VL: DIQMTHSPPSLSASVGDRITITCQASQDISYYLIWYQQKPGKAPKPLIYDASNLEAGVPSRFSASGSGTDFTLTISSLQPEDLATYYCQQYKSLPYTFGQGTKLEIK
Turning to B1, the “NT50 (µg/ml), microneutralization, crystal violet” value in test [1] was greater than 200 µg/mL; in test [2], 146 µg/mL; in test [3], greater than 200 µg/mL. For the same molecule, the binding result is “no binding (tested: 1 ug/ml)” in test [4], “no binding (tested: 1 ug/ml)” in test [5], “no binding (tested: 1 ug/ml)” in test [6] and “binds” in test [7].
